Data as given in the supplement of paper PMC11246515.
± gives the standard deviation of the averaged measurements.

Assay: total protein half-life in vivo (active degradation + dilution); higher = more stable protein
[1] = E. coli NCM3722 delta-clpP delta-lon delta-hslV, growth: N-lim chemostat, doubling time 6 h
[2] = E. coli NCM3722 delta-clpP, growth: N-lim chemostat, doubling time 6 h
[3] = E. coli NCM3722 delta-smpB, growth: N-lim chemostat, doubling time 6 h
[4] = wild type E. coli NCM3722, growth: P-lim chemostat, doubling time 12 h
[5] = E. coli NCM3722 delta-lon, growth: N-lim chemostat, doubling time 6 h
[6] = wild type E. coli NCM3722, growth: C-lim chemostat, doubling time 3 h
[7] = wild type E. coli NCM3722, growth: C-lim chemostat, doubling time 6 h
[8] = wild type E. coli NCM3722, growth: C-lim chemostat, doubling time 12 h
[9] = wild type E. coli NCM3722, growth: N-lim chemostat, doubling time 6 h
[10] = wild type E. coli NCM3722, growth: N-lim chemostat, doubling time 12 h
[11] = wild type E. coli NCM3722, growth: P-lim chemostat, doubling time 6 h
[12] = E. coli NCM3722 delta-hslV, growth: N-lim chemostat, doubling time 6 h

Sequence | total protein half-life in vivo [1] | total protein half-life in vivo [2] | total protein half-life in vivo [3] | total protein half-life in vivo [4] | total protein half-life in vivo [5] | total protein half-life in vivo [6] | total protein half-life in vivo [7] | total protein half-life in vivo [8] | total protein half-life in vivo [9] | total protein half-life in vivo [10] | total protein half-life in vivo [11] | total protein half-life in vivo [12]
MKNASTVSEDTASNQEPTLHRGLHNRHIQLIALGGAIGTGLFLGIGPAIQMAGPAVLLGYGVAGIIAFLIMRQLGEMVVEEPVSGSFAHFAYKYWGPFAGFLSGWNYWVMFVLVGMAELTAAGIYMQYWFPDVPTWIWAAAFFIIINAVNLVNVRLYGETEFWFALIKVLAIIGMIGFGLWLLFSGHGGEKASIDNLWRYGGFFATGWNGLILSLAVIMFSFGGLELIGITAAEARDPEKSIPKAVNQVVYRILLFYIGSLVVLLALYPWVEVKSNSSPFVMIFHNLDSNVVASALNFVILVASLSVYNSGVYSNSRMLFGLSVQGNAPKFLTRVSRRGVPINSLMLSGAITSLVVLINYLLPQKAFGLLMALVVATLLLNWIMICLAHLRFRAAMRRQGRETQFKALLYPFGNYLCIAFLGMILLLMCTMDDMRLSAILLPVWIVFLFMAFKTLRRK | 5.66 h | 5.51 h | 5.23 ± 0.36 h | > 16 h |  |  |  |  |  |  |  | 
MKNCVIVSAVRTAIGSFNGSLASTSAIDLGATVIKAAIERAKIDSQHVDEVIMGNVLQAGLGQNPARQALLKSGLAETVCGFTVNKVCGSGLKSVALAAQAIQAGQAQSIVAGGMENMSLAPYLLDAKARSGYRLGDGQVYDVILRDGLMCATHGYHMGITAENVAKEYGITREMQDELALHSQRKAAAAIESGAFTAEIVPVNVVTRKKTFVFSQDEFPKANSTAEALGALRPAFDKAGTVTAGNASGINDGAAALVIMEESAALAAGLTPLARIKSYASGGVPPALMGMGPVPATQKALQLAGLQLADIDLIEANEAFAAQFLAVGKNLGFDSEKVNVNGGAIALGHPIGASGARILVTLLHAMQARDKTLGLATLCIGGGQGIAMVIERLN | 4.78 ± 0.92 h | 3.36 h | 2.808 ± 0.0077 h |  | 2.93 ± 0.073 h | 3.34 h | 5.45 ± 1.1 h | 8 h | 2.92 ± 0.27 h | 3.67 ± 0.067 h | 5.43 h | 
MKNNPLISIYMPTWNRQQLAIRAIKSVLRQDYSNWEMIIVDDCSTSWEQLQQYVTALNDPRITYIHNDINSGACAVRNQAIMLAQGEYITGIDDDDEWTPNRLSVFLAHKQQLVTHAFLYANDYVCQGEVYSQPASLPLYPKSPYSRRLFYKRNIIGNQVFTWAWRFKECLFDTELKAAQDYDIFLRMVVEYGEPWKVEEATQILHINHGEMQITSSPKKFSGYFHFYRKHKDKFDRASKKYQLFTLYQIRNKRMTWRTLLTLLSVRNGKRLADGIRGR | 3.18 h |  | 1.7 ± 0.1 h |  | 2.71 ± 0.069 h |  |  |  |  |  |  | 
MKNNSQLLMPREKMLKFGISALTDVELLALFLRTGTRGKDVLTLAKEMLENFGSLYGLLTSEYEQFSGVHGIGVAKFAQLKGIAELARRYYNVRMREESPLLSPEMTREFLQSQLTGEEREIFMVIFLDSQHRVITHRRLFSGTLNHVEVHPREIIREAIKINASALILAHNHPSGCAEPSKADKLITERIIKSCQFMDLRVLDHIVIGRGEYVSFAERGWI |  |  |  |  |  | 3.03 h |  |  | 4.31 h |  |  | 
MKNRTLGSVFIVAGTTIGAGMLAMPLAAAGVGFSVTLILLIGLWALMCYTALLLLEVYQHVPADTGLGTLAKRYLGRYGQWLTGFSMMFLMYALTAAYISGAGELLASSISDWTGISMSATAGVLLFTFVAGGVVCVGTSLVDLFNRFLFSAKIIFLVVMLVLLLPHIHKVNLLTLPLQQGLALSAIPVIFTSFGFHGSVPSIVSYMDGNIRKLRWVFIIGSAIPLVAYIFWQVATLGSIDSTTFMGLLANHAGLNGLLQALREMVASPHVELAVHLFADLALATSFLGVALGLFDYLADLFQRSNTVGGRLQTGAITFLPPLAFALFYPRGFVMALGYAGVALAVLALIIPSLLTWQSRKHNPQAGYRVKGGRPALVVVFLCGIAVIGVQFLIAAGLLPEVG [P0AAD4] |  |  | 6.48 h |  |  |  |  |  |  |  |  | 
MKNTELEQLINEKLNSAAISDYAPNGLQVEGKETVQKIVTGVTASQALLDEAVRLGADAVIVHHGYFWKGESPVIRGMKRNRLKTLLANDINLYGWHLPLDAHPELGNNAQLAALLGITVMGEIEPLVPWGELTMPVPGLELASWIEARLGRKPLWCGDTGPEVVQRVAWCTGGGQSFIDSAARFGVDAFITGEVSEQTIHSAREQGLHFYAAGHHATERGGIRALSEWLNENTDLDVTFIDIPNPA [P0AFP6] | 4.31 ± 0.15 h | 3.736 ± 0.0077 h | 3.7 ± 0.28 h | 11.2 ± 1.2 h | 4.42 ± 0.65 h | 2.86 ± 0.27 h | 6.13 ± 0.52 h | 10.3 ± 0.29 h | 3.66 ± 0.23 h | 5.74 ± 0.75 h | 5.26 ± 0.41 h | 3.9 ± 0.38 h
MKNTKLLLAIATSAALLTGCQNTHGIDTNMAISSGLNAYKAATLSDADAKAIANQGCAEMDSGNQVASKSSKYGKRLAKIAKALGNNINGTPVNYKVYMTSDVNAWAMANGCVRVYSGLMDMMNDNEIEGVLGHELGHVALGHSLAEMKASYAIVAARDAISATSGVASQLSRSQLGDIAEGAINAKYSRDKESEADDFSFDLLKKRGISTQGLVGSFETLASLDGGRTQSMFDSHPPSTERAQHIRDRIASGK |  | 3.87 h |  |  | 5.88 h |  |  |  |  |  |  | 4.19 h
MKNVGFIGWRGMVGSVLMQRMVEERDFDAIRPVFFSTSQLGQAAPSFGGTTGTLQDAFDLEALKALDIIVTCQGGDYTNEIYPKLRESGWQGYWIDAASSLRMKDDAIIILDPVNQDVITDGLNNGIRTFVGGNCTVSLMLMSLGGLFANDLVDWVSVATYQAASGGGARHMRELLTQMGHLYGHVADELATPSSAILDIERKVTTLTRSGELPVDNFGVPLAGSLIPWIDKQLDNGQSREEWKGQAETNKILNTSSVIPVDGLCVRVGALRCHSQAFTIKLKKDVSIPTVEELLAAHNPWAKVVPNDREITMRELTPAAVTGTLTTPVGRLRKLNMGPEFLSAFTVGDQLLWGAAEPLRRMLRQLA [P0A9Q9] | 4.6 ± 1.1 h | 3.96 ± 0.59 h | 3.49 ± 0.27 h | 11 ± 1.3 h | 4.54 ± 0.57 h | 2.97 ± 0.19 h | 5.55 ± 0.092 h | 9.4 ± 0.89 h | 3.76 ± 0.22 h | 5.831 ± 0.054 h | 5.76 ± 0.3 h | 3.75 ± 0.11 h
MKNWKTSAESILTTGPVVPVIVVKKLEHAVPMAKALVAGGVRVLEVTLRTECAVDAIRAIAKEVPEAIVGAGTVLNPQQLAEVTEAGAQFAISPGLTEPLLKAATEGTIPLIPGISTVSELMLGMDYGLKEFKFFPAEANGGVKALQAIAGPFSQVRFCPTGGISPANYRDYLALKSVLCIGGSWLVPADALEAGDYDRITKLAREAVEGAKL [P0A955] | 4.94 ± 0.33 h | 4.33 ± 0.52 h | 4.3 ± 0.16 h | 12.2 ± 0.37 h | 4.92 ± 0.53 h | 2.99 ± 0.52 h | 6.17 ± 0.77 h | 9.18 ± 0.99 h | 4.63 ± 0.16 h | 7.2 ± 0.82 h | 5.39 ± 0.082 h | 4.66 ± 0.37 h
MKPARVPQTVVAPDCWGDLPWGKLYRKALERQLNPWFTKMYGFHLLKIGNLSAEINCEACAVSHQVNVSAQGMPVQVQADPLHLPFADKSVDVCLLAHTLPWCTDPHRLLREADRVLIDDGWLVISGFNPISFMGLRKLVPVLRKTSPYNSRMFTLMRQLDWLSLLNFEVLHASRFHVLPWNKHGGKLLNAHIPALGCLQLIVARKRTIPLTLNPMKQSKNKPRIRQAVGATRQCRKPQA | 5.49 ± 0.13 h |  | 7.25 ± 1 h | 10.6 ± 2.4 h | 5.76 ± 1 h | 1.91 ± 0.15 h | 4.59 ± 1.2 h | 11.5 h | 6.41 h | 9.9 ± 3.1 h | 5.31 ± 1.1 h | 5.49 ± 0.6 h
MKPDAHQVKQFLLNLQDTICQQLTAVDGAEFVEDSWQREAGGGGRSRVLRNGGVFEQAGVNFSHVHGEAMPASATAHRPELAGRSFEAMGVSLVVHPHNPYVPTSHANVRFFIAEKPGADPVWWFGGGFDLTPFYGFEEDAIHWHRTARDLCLPFGEDVYPRYKKWCDEYFYLKHRNEQRGIGGLFFDDLNTPDFDRCFAFMQAVGKGYTDAYLPIVERRKAMAYGERERNFQLYRRGRYVEFNLVWDRGTLFGLQTGGRTESILMSMPPLVRWEYDYQPKDGSPEAALSEFIKVRDWV | 5.53 ± 1.4 h | 4.55 ± 0.073 h | 4.05 ± 0.34 h | 11.7 ± 0.97 h | 5.01 ± 0.37 h |  | 5.24 ± 0.9 h | 10.1 ± 0.14 h | 4.29 ± 0.35 h | 7.38 ± 0.34 h | 6.06 ± 0.66 h | 5 ± 0.44 h
MKPIFSRGPSLQIRLILAVLVALGIIIADSRLGTFSQIRTYMDTAVSPFYFVSNAPRELLDGVSQTLASRDQLELENRALRQELLLKNSELLMLGQYKQENARLRELLGSPLRQDEQKMVTQVISTVNDPYSDQVVIDKGSVNGVYEGQPVISDKGVVGQVVAVAKLTSRVLLICDATHALPIQVLRNDIRVIAAGNGCTDDLQLEHLPANTDIRVGDVLVTSGLGGRFPEGYPVAVVSSVKLDTQRAYTVIQARPTAGLQRLRYLLLLWGADRNGANPMTPEEVHRVANERLMQMMPQVLPSPDAMGPKLPEPATGIAQPTPQQPATGNAATAPAAPTQPAANRSPQRATPPQSGAQPPARAPGGQ | 5.092 ± 0.007 h | 4.62 ± 0.051 h | 4.76 ± 0.74 h | 10.5 ± 0.18 h |  | 2.85 ± 0.07 h | 5.57 ± 1.1 h | 10.25 ± 0.089 h | 4.21 ± 0.1 h | 8.66 ± 0.23 h | 4.98 ± 0.25 h | 4.54 ± 0.24 h
MKPNIHPEYRTVVFHDTSVDEYFKIGSTIKTDREIELDGVTYPYVTIDVSSKSHPFYTGKLRTVASEGNVARFTQRFGRFVSTKKGA [P0A7N1] |  |  | 2.8 h |  |  | 2.784 ± 0.022 h | 5.71 ± 0.51 h | 9.33 h |  |  | 6.22 h | 
